The conditions of the series: Saccharomyces cerevisiae (strain ATCC 204508 / S288c), DSC, reversible: yes; for ddG of mutation (higher = less stable) / denaturant m value / denaturant midpoint (higher = more stable) / unfolding free energy: pH 7, 22 °C, GdnHCl, Potassium phosphate 0.1 M; for Tm / change of melting temperature, mutant - wild type (higher = more stable) / unfolding enthalpy (calorimetric): pH 4.6, Thermal, Potassium acetate 0.1 M.

The term Tm denotes the temperature at the midpoint of the melting transition.

Chain of Cytochrome c isoform 1 N58I, P00044 (P00044 whole entry N58I, canonical isoform): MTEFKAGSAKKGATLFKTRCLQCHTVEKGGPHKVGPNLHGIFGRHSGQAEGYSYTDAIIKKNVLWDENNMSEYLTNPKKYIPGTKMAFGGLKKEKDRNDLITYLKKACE
Chain of Cytochrome c isoform 1 G12A, P00044 (P00044 whole entry G12A, canonical isoform): as the sequence (P00044 whole entry N58I, canonical isoform) above, with G12A, I58N counted along it
Chain of Cytochrome c isoform 1 wild type, P00044 (P00044 whole entry, canonical isoform): as the sequence (P00044 whole entry N58I, canonical isoform) above, with I58N counted along it
Chain of Cytochrome c isoform 1 G12A|N58I, P00044 G12A N58I (P00044 whole entry G12A/N58I, canonical isoform): as the sequence (P00044 whole entry N58I, canonical isoform) above, with G12A counted along it
Chain of Cytochrome c isoform 1 G12S|N58I, P00044 G12S N58I (P00044 whole entry G12S/N58I, canonical isoform): as the sequence (P00044 whole entry N58I, canonical isoform) above, with G12S counted along it

For Cytochrome c isoform 1 G12A, P00044, for the setting “structure 1YCC”, the “ddG of mutation (higher = less stable)” value was 3.5 kcal/mol, the denaturant m value is 5.4 kcal/mol/M, the “denaturant midpoint (higher = more stable)” value (from here on “denaturant midpoint”) was found to be 0.44 M and the unfolding free energy worked out at 2.36 kcal/mol.

For “Cytochrome c isoform 1 G12A|N58I, P00044 G12A N58I”, where the note is “structure 1YCC”, the Tm was 47.4 °C; the “change of melting temperature, mutant - wild type (higher = more stable)” value was -1.8 °C; the “unfolding enthalpy (calorimetric)” value is 64.7 kcal/mol.

Turning to “Cytochrome c isoform 1 G12S|N58I, P00044 G12S N58I”, for the setting “structure 1YCC”, the “ddG of mutation (higher = less stable)” value came out at 0.31 kcal/mol, the denaturant m value came to 4.75 kcal/mol/M, the “denaturant midpoint” value amounted to 1.17 M and the unfolding free energy turned out to be 5.55 kcal/mol.

Regarding Cytochrome c isoform 1 N58I, P00044, for the setting “structure 1YCC”, the Tm came out at 62.2 °C; the “change of melting temperature, mutant - wild type (higher = more stable)” value came to 13 °C; the “unfolding enthalpy (calorimetric)” value worked out at 101 kcal/mol.

As to “Cytochrome c isoform 1 wild type, P00044”, the Tm was found to be 49.2 °C, the “unfolding enthalpy (calorimetric)” value stood at 78.8 kcal/mol, the denaturant m value stood at 4.36 kcal/mol/M and the “denaturant midpoint” value came to 1.34 M. In addition, the unfolding free energy came to 5.86 kcal/mol.
